The text below walks through data of patent US20150299314A1 (TORAY INDUSTRIES, published 2015).

Assay [1] concerns the target T1, CAPRIN-1 protein expressed on the cell surface of human cancer cells (human, UniProt Q14444 2-709).
T1 sequence (looked up): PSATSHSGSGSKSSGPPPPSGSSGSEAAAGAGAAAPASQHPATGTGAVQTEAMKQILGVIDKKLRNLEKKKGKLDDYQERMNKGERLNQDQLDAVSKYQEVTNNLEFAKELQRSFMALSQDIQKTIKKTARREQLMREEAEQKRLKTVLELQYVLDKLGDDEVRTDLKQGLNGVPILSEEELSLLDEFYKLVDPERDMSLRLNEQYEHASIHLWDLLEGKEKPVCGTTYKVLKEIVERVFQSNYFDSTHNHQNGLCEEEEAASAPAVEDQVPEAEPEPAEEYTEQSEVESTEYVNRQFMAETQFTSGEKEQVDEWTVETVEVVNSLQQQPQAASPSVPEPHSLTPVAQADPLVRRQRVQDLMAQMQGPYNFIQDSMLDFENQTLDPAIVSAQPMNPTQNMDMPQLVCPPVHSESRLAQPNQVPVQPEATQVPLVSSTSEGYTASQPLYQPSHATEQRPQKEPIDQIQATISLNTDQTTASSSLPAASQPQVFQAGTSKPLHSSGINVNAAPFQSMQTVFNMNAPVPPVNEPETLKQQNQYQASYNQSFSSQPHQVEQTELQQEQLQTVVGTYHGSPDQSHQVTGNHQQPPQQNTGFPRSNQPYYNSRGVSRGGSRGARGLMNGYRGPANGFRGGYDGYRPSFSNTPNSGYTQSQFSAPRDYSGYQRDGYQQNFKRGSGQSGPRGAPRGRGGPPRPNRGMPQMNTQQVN
Nature of the assay: cell-based or functional assay.

The target in assay [2] is T2, polypeptide set forth in SEQ ID NO: 266 (human).
T2 construct: Identified from ELISA on 93 synthetic peptides of 12 to 16 amino acids of human CAPRIN-1
T2 peptide: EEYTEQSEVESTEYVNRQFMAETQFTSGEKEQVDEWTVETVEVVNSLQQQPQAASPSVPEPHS
Description: ELISA on immobilized synthetic CAPRIN-1 peptides, culture supernatant. Background: In an ELISA, binding on a coated surface is turned into a signal by an enzyme label.

Assay [3] addresses T3, peptide set forth in SEQ ID NO: 267 (human).
T3 peptide: QQPQAASPSVPE
Described as above.

For assay [4], the target named is T1, CAPRIN-1 protein expressed on the cell …. Description: flow cytometry, TGBC14TKB cells, culture supernatant, isotype control antibody as control. How it is done:
Subsequently, a gallbladder cell line TGBC14TKB, which was confirmed to express a CAPRIN-1 gene, was investigated for whether or not a CAPRIN-1 protein is expressed on the surfaces of these cells. 1×10⁶ cells of TGBC14TKB were centrifuged with a 1.5-mL micro centrifugation tube. To the cells was added the culture supernatant (100 μL) containing any of anti-CAPRIN-1 mouse monoclonal antibodies #1 to #22 reacting to cancer cell surface produced in Example 4 and anti-CAPRIN-1 mouse-chicken chimeric antibodies #1 to #3 produced in the above (2), followed by being left to stand on ice for 1 hour. After washing with PBS, the cells were suspended in a FITC-labeled goat anti-mouse IgG antibody (manufactured by life technologies) diluted by 500-fold with PBS containing 0.1% FBS, followed by being left to stand on ice for 1 hour. After washing with PBS, the fluorescence intensity was measured with FACS Calibur available from Becton, Dickinson and Company. Separately, as a control, the same procedure as in above was performed using an iso-type control antibody, instead of the culture supernatants containing the anti-CAPRIN-1 mouse monoclonal antibodies #1 to #22 and the mouse-chicken chimeric antibodies #1 to #3. As a result, the fluorescence intensity in the cells to which any of the monoclonal antibodies #1 to #22 and the mouse-chicken chimeric antibodies #1 to #3 was added was 20% or more higher than that in the control in every case. Specifically, in the case of using mouse-chicken chimeric antibody #1, the fluorescence intensity was enhanced by 200% or more. […] The rate of increase in the fluorescence intensity is represented by the rate of increase in the mean fluorescence intensity (MFI value) in each cell and is calculated by the following calculation formula: […]

Assay [5] addresses T4, polypeptide set forth in SEQ ID NO: 431 (human).
T4 peptide: VERVFQSNYFDSTHNH
Description: ELISA on immobilized synthetic CAPRIN-1 peptides, culture supernatant.

The target of assay [6] is T1, CAPRIN-1 protein expressed on the cell …. Description: flow cytometry, TGBC14TKB cells, antibody 20 ug/mL, secondary antibody only as control. How it is done:
(§1) A human gallbladder cancer cell line TGBC14TKB was investigated whether or not a CAPRIN-1 protein is expressed on the cell surface. 5×10⁵ cells of the gallbladder cancer cell line were centrifuged with a 1.5-mL micro centrifugation tube. The cells were subjected to reaction with each mouse anti-CAPRIN-1 antibody at a final concentration of 20 μg/mL, followed by being left to stand on ice for 1 hour. After washing with PBS, the cells were reacted with a 100-fold diluted Alexa488-labeled goat anti-mouse IgG antibody (manufactured by life technologies), followed by being left to stand on ice for […]. After washing with PBS, the fluorescence intensity was measured with FACS Calibur available from Becton, Dickinson and Company. As a negative control, only the secondary antibody was used in the reaction.
as §1, with “cell surface using mouse anti-CAPRIN-1 monoclonal antibodies #30 to #36.” for “cell surface.”, “of TGBC14TKB” for “of the gallbladder cancer cell line”, “each of” for “each”, “anti-CAPRIN-1 antibodies #30 to #36” for “anti-CAPRIN-1 antibody”, “Company. Separately, the cells were subjected to reaction with” for “Company. As a negative control,”, “antibody as a negative control.” for “antibody was used in the reaction.”

Assay [7] addresses T5, polypeptide comprising the amino acid sequence set forth in SEQ ID NO: 269 (human).
T5 peptide: PPVNEPETLKQQNQYQAS
Nature of the assay: ELISA on immobilized synthetic CAPRIN-1 peptides, culture supernatant.

In assay [8] the target is T6, peptide set forth in SEQ ID NO: 268 (human).
T6 peptide: FTSGEKEQVDEW
The description is as above.

In assay [9] the target is T7, polypeptide set forth in SEQ ID NO: 430 (human).
T7 peptide: ATQVPLVSSTSEGYTA
Description: ELISA on 93 immobilized synthetic peptides of human CAPRIN-1, purified antibody 0.1 ug/mL. The protocol: Candidate peptides (93 peptides) each consisting of 12 to 16 amino acids of the amino acid sequence of the human CAPRIN-1 protein were synthesized and were each dissolved at a concentration of 1 mg/mL in DMSO. Each peptide was dissolved at a concentration of 30 μg/mL in a 0.1 M sodium carbonate buffer (pH 9.6). The solution was added to a 96-well plate (manufactured by Nunc, Product No. 436006) at 100 μL per well, followed by being left to stand at 4° C. overnight. The solution was removed, and 200 μL of 10 mM ethanolamine/0.1 M sodium carbonate buffer (pH 9.6) was added to each well, followed by being left to stand at room temperature for 1 hour. The solution was removed, and each well was washed with PBS containing 0.5% Tween 20 (PBST) twice to prepare a peptide-immobilized plate. For confirmation, this plate was also provided with a well to which the CAPRIN-1 protein was immobilized in accordance with the method described above. Rabbit anti-CAPRIN-1 monoclonal antibody #1 purified to a concentration of 0.1 ug/mL by a usual method was added to the plate at an amount of 50 μL per well, followed by shaking at room temperature for 1 hour. The solution was removed, and each well was washed with PBST three times. […] The absorbance was measured at 450 nm and 595 nm with an absorption spectrometer. […]

Assay [10] has as its target T7, polypeptide set forth in SEQ ID NO: 430. Nature of the assay: ELISA as in Example 13(1), purified antibody.

B1: human-chicken chimeric antibody #1 (antibody, human IgG1, kappa, V domains shown)
VH: AVTLDESGGGLQMSRGGLSLVCKASGFDFSSYQMNWIRQAPGKGLEFVAAINKFGNSTGHGAAVKGRVTISRDNGQSTVRLQLNNLRAEDTAIYFCTKHAYGYCGSGTWCAAGEIDAWGHGTEVIVSS
VL: QAASTQPSSVSANPGETVEITCSGGGSYSYGWFQQKSPGSAPVTVIYYNNKRPSDIPSRFSGSKSGSTGTLTITGVQADDEAVYYCGSGDSTDTAVFGAGTTLTVLG
notes: also called human-chicken chimeric monoclonal antibody #1
As for B1, the “cytotoxicity (ADCC, 51Cr release) on TGBC14TKB, human NK cells” value (shortened to “cytotoxicity (ADCC, 51Cr release)”) in assay [1] came to 20%. The binding result in assay [2] and in assay [3] was “binds” throughout.

B2: mouse monoclonal antibody #4 (antibody, V domains shown)
VH: GAELVRSGASVKMSCKASGYSFTDYNMYWVKQTPGQGLEWIGYIYPGNGGTNYNQKFKGKATLTADTSSSTAYMQISSLTSEDSAVYFCARDYDDGGYAMDYWGQGTTVTVSS
VL: DIQMTQSPASLSASVGETVTITCRASGNIHNYLTWYQQKQGKSPQLLVYNAKTLADGVPSRFSGSGSGTQYSLKINRLQPEDFGSYYCQHFWNIPWTFGGGTKLNSR
notes: mouse hybridoma antibody; also called anti-CAPRIN-1 mouse monoclonal antibody #4; anti-CAPRIN-1 monoclonal antibody #4
Take B2: the “cytotoxicity (ADCC, 51Cr release)” value in assay [1] is not below 15%. Moreover, the binding result in [2] and in [3] was “binds” throughout. In addition, the “rate of increase in mean fluorescence intensity over control” value in assay [4] is not below 20%.

B3: mouse anti-CAPRIN-1 antibody #34 (antibody, V domains shown)
VH: GAELVRPGTSVKVSCKASVYAFTNYLIEWVKQRPGQGLEWIGVINPKSGGTKYNEKFRGKATLTADKSSSTAYMQLSSLTSGDSAVYFCAITGTDYWGQGTTLTVSS
VL: QGTRCDIQMTQTTSSLSASLGDRVTISCSASQGINNYLNWYQQKPDGTVKLLIYYTSSLRSGVPSRFSGSGSGTDYSLTISNLEPEDVATYYCQQYSKLPRTFGGGTKLEIKR
notes: mouse hybridoma antibody; also called mouse anti-CAPRIN-1 monoclonal antibody #34; mouse anti-CAPRN-1 antibody #34
For the molecule B3, the binding result in [5] is on record as “binds”. Further, the “increase in fluorescence intensity over control” value in [6] was not below 35%.

B4: human-chicken chimeric antibody #3 (antibody, human IgG1, kappa, V domains shown)
VH: AVTLDESGGGLQTPGGALSLVCKASGFTFSGYDMLWVRQAPGKGLEWVAGIGSTGGGTDYGAAVKGRATISRDNGQSTVRLQLNNLRAEDTATYYCAKVAGGCNSGYCRDSPGSIDAWGHGTEVIVSA
VL: AVTQQPASVSANPGETVKITCSGGGSRNYYGWYQQKSPGSVPVTVIYYDDQRPSNIPSRFSGALSGSTSTLTITGVQADDEAVYFCGSADSNTYEGSFGAGTTLTVLT
notes: Produced 'similarly' to human-chicken chimeric antibody #1 from chicken monoclonal antibody #3; also called human-chicken chimeric monoclonal antibody #3
As for B4, the “cytotoxicity (ADCC, 51Cr release)” value in assay [1] is not below 15%. Also, in assay [7], the binding result is given as “binds”.

B5: mouse monoclonal antibody #5 (antibody, V domains shown)
VH: DAELVKPGASVKISCKASGYTFTDHSIHWVQQKPEQGLEWIGYISPGNGNIKYNEKFKGKATLTADKSSSTAYMQLNSLTSEDSAVYFCKRSLGRGGPYYFDYWGQGTTVTVSS
VL: DIVLTQAAPSLPVTPGESVSISCRSSKSLLHSNGNTYLYWFLQRPGQSPQLLIYRMSNLASGVPDRFSGSGSGTAFTLRISRVEAEDVGVYYCMQHREYPVTFGSGPN
notes: mouse hybridoma antibody; also called anti-CAPRIN-1 mouse monoclonal antibody #5; anti-CAPRIN-1 monoclonal antibody #5
As for B5, the “cytotoxicity (ADCC, 51Cr release)” value in [1] was not below 15%. In addition, the binding result in [2] and in assay [8] was “binds” in each case. Moreover, in assay [4], the “rate of increase in mean fluorescence intensity over control” value is not below 20%.

B6: rabbit anti-CAPRIN-1 monoclonal antibody #1 (antibody, V domains shown)
VH: QSLEESGGDLVKPGASLTLTCTASGFSFSGSYYMSWVRQAPGKGLEWIAYIYIGDGVTAYANWAKGRFTISKASSTTVTLQMTSLTAADTATYFCARGNKLWGPGTLVTVSS
VL: DVVMTQTPASVEAAVGGTVTIKCQASQSISSYLAWYQQKPGQPPKRLIYDASNLDSGVPSRFKGSGSGTDFTITISDLECADAATYYCQCTAVSSATIYGNAFGGGTEVVVK
notes: rabbit hybridoma antibody
Turning to B6, the binding result in assay [9] is on record as “binds”.

B7: human-rabbit chimeric anti-CAPRIN-1 antibody #1 (antibody, V domains shown)
VH: QSLEESGGDLVKPGASLTLTCTASGFSFSGSYYMSWVRQAPGKGLEWIAYIYIGDGVTAYANWAKGRFTISKASSTTVTLQMTSLTAADTATYFCARGNKLWGPGTLVTVSS
VL: DVVMTQTPASVEAAVGGTVTIKCQASQSISSYLAWYQQKPGQPPKRLIYDASNLDSGVPSRFKGSGSGTDFTITISDLECADAATYYCQCTAVSSATIYGNAFGGGTEVVVK
notes: also called human-rabbit chimeric anti-CAPRIN-1 monoclonal antibody #1
For B7, the binding result in [10] is reported as “binds”.
